Reference: the supplement of paper PMC7877785
± gives the uncertainty stated by the source.

Assay: self-splicing fitness, log relative to wild type (ln ratio); higher = more splicing; Tetrahymena group I intron in knt gene, E. coli kanamycin selection, DiMSum; sequences stand for … in CUCUCU…GGAGGGAAAAGUUAUCAGGCAUGCACCUGGUAGCUAGUCUUUAAACCAAUAGAUUGCAUCGGUUUAAAAGGCAAGACCGUCAAAUUGCGGGAAAGGGGUCAACAGCCGUUCAGUACCAAGUCUCAGGGGAAACUUUGAGAUGGCCUUGCAAAGGGUAUGGUAAUAAGCUGACGGACAUGGUCCUAACCACGCAGCCAAGUCCUAAGUCAACAGAUCUUCUGUUGAUAUGGAUGCAGUUCACAGACUAAAUGUCGGUCGGGGAAGAUGUAUUCUUCUCAUAAGAUAUAGUCGGACCUCUCCUUAAUGGGAGCUAGCGGAUGAAGUGAUGCAACACUGGAGCCGCUGGGAACUAAUUUGUAUGCGAAAGUAUAUUGAUUAGUUUUGGAGUACUCGUGGUCG
In short: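 Colonies from six replicate transformations of E. coli BL21(DE3) were pooled and amplicon-sequenced on an Illumina HiSeq 2500. The library placed an intron with all eight P1ex-region nucleotides randomised inside the knt kanamycin-resistance gene on pET-22b(+), and cells grew overnight at 37°C or 30°C on LB agar with or without 25 μg/mL kanamycin (plus 100 μg/mL carbenicillin, 50 μM IPTG, 0.2% rhamnose). Fitness is the DiMSum error-weighted combination of wild-type-normalised replicate fold changes, kanamycin versus none.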

| Sequence | self-splicing fitness (ln) (30 °C) | self-splicing fitness (ln) (37 °C) |
| --- | --- | --- |
| CGAUAGCAAUAUUACGGAGC | -3.91 ± 0.4 | -1.63 ± 0.3 |
| CGAUAGCAAUAUUACGGCAU | -2.85 ± 0.21 | -2.54 ± 0.26 |
| CGAUAGCAAUAUUACGGGGU | -3.87 ± 0.19 | -3.11 ± 0.32 |
| CGAUAGCAAUAUUACGGUAG | -1.41 ± 0.11 | -0.461 ± 0.11 |
| CGAUAGCAAUAUUACGUAUG | -1.22 ± 0.071 | -0.164 ± 0.096 |
| CGCAAGCAAUAUUACGAAAC | -3.46 ± 0.37 | -0.979 ± 0.12 |
| CGCAAGCAAUAUUACGAACU | -0.966 ± 0.065 | -0.369 ± 0.076 |
| CGCAAGCAAUAUUACGAAGC | -2.55 ± 0.13 | -3.1 ± 0.19 |
| CGCAAGCAAUAUUACGACUC | -1.3 ± 0.12 | -0.869 ± 0.19 |
| CGCAAGCAAUAUUACGCAAU | -2.94 ± 0.21 | -2.14 ± 0.26 |
| CGCAAGCAAUAUUACGCAGC | – | -2.35 ± 0.27 |
| CGCAAGCAAUAUUACGCCCA | -0.622 ± 0.17 | -0.291 ± 0.16 |
| CGCAAGCAAUAUUACGCGUG | -3.08 ± 0.12 | -1.99 ± 0.13 |
| CGCAAGCAAUAUUACGCUCU | -1.26 ± 0.093 | -0.475 ± 0.094 |
| CGCAAGCAAUAUUACGGAUA | -3.52 ± 0.22 | -2.23 ± 0.16 |
| CGCAAGCAAUAUUACGGCCG | -1.1 ± 0.14 | -0.644 ± 0.26 |
| CGCAAGCAAUAUUACGGUGG | -0.599 ± 0.064 | -0.2 ± 0.079 |
| CGCAAGCAAUAUUACGUAAA | -3.18 ± 0.14 | -2.12 ± 0.18 |
| CGCAAGCAAUAUUACGUCCU | -1.2 ± 0.11 | -0.366 ± 0.12 |
| CGCAAGCAAUAUUACGUCGC | -2.24 ± 0.19 | -3.19 ± 0.29 |
| CGCAAGCAAUAUUACGUGGU | -3.75 ± 0.17 | -3.22 ± 0.19 |
| CGCCAGCAAUAUUACGAAAG | -0.802 ± 0.054 | 0.0641 ± 0.081 |
| CGCCAGCAAUAUUACGAAUG | -0.783 ± 0.058 | 0.0658 ± 0.066 |
| CGCCAGCAAUAUUACGACUA | -2.15 ± 0.2 | -2.13 ± 0.2 |
| CGCCAGCAAUAUUACGAGCC | -1.63 ± 0.14 | -0.446 ± 0.18 |

| Sequence | self-splicing fitness (ln) (30 °C) | self-splicing fitness (ln) (37 °C) |
| --- | --- | --- |
| CGCCAGCAAUAUUACGCACA | -1.68 ± 0.2 | -1.65 ± 0.27 |
| CGCCAGCAAUAUUACGCGAA | -2.14 ± 0.15 | -1.38 ± 0.15 |
| CGCCAGCAAUAUUACGCUUU | -2.9 ± 0.13 | -1.13 ± 0.12 |
| CGCCAGCAAUAUUACGGAAA | -1.48 ± 0.17 | -1.93 ± 0.17 |
| CGCCAGCAAUAUUACGGAGG | -3.32 ± 0.18 | -0.355 ± 0.12 |
| CGCCAGCAAUAUUACGGCCG | -2.9 ± 0.14 | -0.755 ± 0.18 |
| CGCCAGCAAUAUUACGGCGG | -2.23 ± 0.13 | -1.83 ± 0.17 |
| CGCCAGCAAUAUUACGGCGU | -3.63 ± 0.46 | -2.17 ± 0.23 |
| CGCCAGCAAUAUUACGGGAG | -1.92 ± 0.072 | -1.38 ± 0.094 |
| CGCCAGCAAUAUUACGUCCU | -4.8 ± 0.36 | -2.45 ± 0.31 |
| CGCCAGCAAUAUUACGUCGG | -3.04 ± 0.21 | -1.91 ± 0.21 |
| CGCCAGCAAUAUUACGUCUG | -2.97 ± 0.18 | -0.917 ± 0.13 |
| CGCCAGCAAUAUUACGUGAG | -1.37 ± 0.078 | -1.25 ± 0.11 |
| CGCCAGCAAUAUUACGUGCA | -0.897 ± 0.056 | 0.212 ± 0.085 |
| CGCGAGCAAUAUUACGAAAA | -1.55 ± 0.43 | -3.06 ± 0.4 |
| CGCGAGCAAUAUUACGAACC | – | -0.306 ± 0.33 |
| CGCGAGCAAUAUUACGAAUA | -2.84 ± 0.35 | -2.25 ± 0.38 |
| CGCGAGCAAUAUUACGACCC | -0.487 ± 0.44 | – |
| CGCGAGCAAUAUUACGCGAC | -2.96 ± 0.34 | -0.404 ± 0.39 |
| CGCGAGCAAUAUUACGCGCG | – | -2.07 ± 0.29 |
| CGCGAGCAAUAUUACGCGGC | – | -2.4 ± 0.38 |
| CGCGAGCAAUAUUACGCGUA | -2.59 ± 0.37 | -2.52 ± 0.28 |
| CGCGAGCAAUAUUACGCUAA | -2.95 ± 0.27 | -2.55 ± 0.28 |
| CGCGAGCAAUAUUACGCUUG | -3.06 ± 0.2 | -1.46 ± 0.22 |
